The values that follow come from patent US20190300604A1 (ASCLEPIUMM TAIWAN, published 2019).

This assay concerns the target T1, human Desmoglein2 (Dsg2) (human, UniProt Q14126 50-1118).
T1 construct: whole, on cells; also called Dsg2-expressing cells
T1 sequence (looked up): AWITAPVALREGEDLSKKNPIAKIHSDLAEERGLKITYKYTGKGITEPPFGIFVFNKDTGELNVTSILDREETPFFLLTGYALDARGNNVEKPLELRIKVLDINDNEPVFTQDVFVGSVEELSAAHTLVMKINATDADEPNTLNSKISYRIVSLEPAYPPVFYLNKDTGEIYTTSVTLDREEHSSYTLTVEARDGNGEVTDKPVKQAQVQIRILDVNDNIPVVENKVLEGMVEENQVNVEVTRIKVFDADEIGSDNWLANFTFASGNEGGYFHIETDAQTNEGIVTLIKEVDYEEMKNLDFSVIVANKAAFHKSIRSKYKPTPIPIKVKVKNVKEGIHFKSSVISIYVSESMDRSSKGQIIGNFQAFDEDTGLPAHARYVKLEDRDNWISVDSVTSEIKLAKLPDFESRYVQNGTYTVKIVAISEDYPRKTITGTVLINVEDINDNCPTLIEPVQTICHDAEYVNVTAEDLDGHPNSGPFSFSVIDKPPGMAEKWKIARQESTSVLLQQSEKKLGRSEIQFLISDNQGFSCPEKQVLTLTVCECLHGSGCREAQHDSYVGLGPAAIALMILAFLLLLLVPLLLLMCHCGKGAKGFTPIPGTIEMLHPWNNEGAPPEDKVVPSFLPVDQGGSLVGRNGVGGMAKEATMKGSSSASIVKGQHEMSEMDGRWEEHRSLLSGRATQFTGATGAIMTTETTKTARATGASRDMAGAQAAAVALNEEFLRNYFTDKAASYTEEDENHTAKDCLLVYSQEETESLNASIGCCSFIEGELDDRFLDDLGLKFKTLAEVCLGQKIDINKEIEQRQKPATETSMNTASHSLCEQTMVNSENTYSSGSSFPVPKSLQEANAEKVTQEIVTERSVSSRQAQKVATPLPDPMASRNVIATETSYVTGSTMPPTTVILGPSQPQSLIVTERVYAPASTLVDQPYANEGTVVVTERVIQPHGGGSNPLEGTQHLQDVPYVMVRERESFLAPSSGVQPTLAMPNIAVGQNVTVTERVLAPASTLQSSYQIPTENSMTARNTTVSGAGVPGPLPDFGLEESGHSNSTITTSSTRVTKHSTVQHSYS
As to the kind of experiment: flow cytometry and Western blotting, Dsg2 knockdown and Dsg2 over-expression cells.

B1: Dsg2 monoclonal antibody 3D4 (antibody, V domains shown)
VH: QIQLVQSGPELKKPGETVKISCKASGYTFTNYGMNWVRQAPGKALKWMVWMNTNTGESIYAEEFKGRFVFSLDTSASTAYLQINNLNNEDTATYFCARYWDTYWGQGTTLTVSS
VL: DIKMTQSPSSMYASLGERVTITCKASQDINSYLSWFQQKPGKSPKTLIYRANRLVDGVPSRFSGSGSGQDFSLTISSLEYEDMGIYYCLQYDEFPYTFGGGTKLEIK
notes: Mouse hybridoma antibody from BALB/c mice, detected with anti-mouse IgG Fc-gamma specific antibody; also called mAb 3D4
On to B1, for which the binding result was “binds”.

B2: Dsg2 monoclonal antibody 13D3 (antibody, V domains shown)
VH: QVQLQQPGAELVKPGASVKLSCKASGYTFTSYYMYWVKQRPGQGLEWIGGINPNNGGTNFNEKFKSKATLTVDKSSSTAYMQLRSLTSEDSAVYYCIRGSGYGNWGQGTLVTVSA
VL: DIKMTQSPSSMYASLGERVTITCKASQDINGYLSWFQQKPGKSPKTLIYRANRLVDGVPSRFSGSGSGQDYSLTISSLEYEDMGIYYCLQYDEFPYTFGGGTKLEIK
notes: Mouse hybridoma antibody from BALB/c mice, detected with anti-mouse IgG Fc-gamma specific antibody; also called mAb 13D3
For the molecule B2, the binding result is listed as “binds”.
